Measured values as given in the DeepSol protein solubility set.

Experiment: soluble on expression in E. coli; label from the status in PepcDB or PDB records

Row | Sequence | soluble on expression in E. coli
1 | MNVSVNIKNVTKEYRIYRTNKERMKDALIPKHKNKTFFALDDISLKAYEGDVIGLVGINGSGKSTLSNIIGGSLSPTVGKVDRNGEVSVIAISAGLSGQLTGIENIEFKMLCMGFKRKEIKAMTPKIIEFSELGEFIYQPVKKYSSGMRAKLGFSINITVNPDILVIDEALSVGDQTFAQKCLDKIYEFKEQNKTIFFVSHNLGQVRQFCTKIAWIEGGKLKDYGELDDVLPKYEAFLNDFKKKSKAEQKEFRNKLDESRFVIK | not soluble
2 | MNWEQKSSMLKKKIERIKEIETTLWGNLEKCELCPRKCGVDRYRTTGICGLPARAKISNAVLHFGEEPPISGKTGAGTVFFSGCNMKCVYCQNMGFSQKGIGTEVEVEDLAEIFLILQKHGAKTLNLVTPTPHLPFIISALRIAIENGLNLPIVYNTSGYEDPEILRLLEGVVDIYLSDVRYSDNEASKKYSKTPDYWTVVQKAIVEMFRQVGIFDEEKMKGLIVRILVLPGNVVDYSEIFSFLSSLSTRIPLSIMNQYIPHFDAQKFPEISRKLNQNEYEKILELAERYGFTEGWYQSEEKERVTTRGLKEISEKLQFLRLKTHNSY | not soluble
3 | MPAKPQLISPAGDWTSMRAALDAGADAVYFGAEGFNMRAASKGFSPGDFGGIARLCRSHGAKAYLALNSVIYDAELDEVDRTAAAAKAAGLDAVICWDLAVIEACRRHEMPIHLSTQASVSNINALRFYASLGARMIVLARELTLEQTAAITKCIAAEKLPVTVESFVHGAMCVAISGRCFLSQELFGRSANRGECVQPCRRSYRIADVEEGFELELGSNYVMSPKDLCALPFLDKLFDAGIGAFKIEGRNRSPEYVATTTAAYRKAIDFIAAHRNDKDFDEAYRSLTDRLQNDLVRVYNRGFSEGFFFGKPADAWTKHSGSAATETKSYVGVVRKYFPKAGVAEILVHAPSVDSGVRLSIQGPATGLVTVPDAELHLDGQLANRIEQGQIFTVRCDRVRKNDKVYVLLKN | not soluble
4 | MPANIDGTLIKDPMVLNIMLFGSDERPGETGYGRSDTMMLLSIDNRNKKLKLTSFMRDTYVNVPEWGDTKLTHAYSYGGPALAIETIERNFGIDIDRYAVVYFDTFPGIVDTLGGIEVEMTQTEADVMNESVGPEFANFTEGKNTLNGATALVYVRIRYGVGDDFGRTQRQRDFMLQVLNKVKGTRDVGTLLTLLTKILPGVTTNISVNEMAGLAGGAISSYMDYPMYQFRLPEDGAFSAVDVDAGNVLAIDDWDAAREHLQRFIYEDTVDPIYGPLEHHHHHH | soluble
5 | MPAPLKQLSWSVGCREIGRNCAISFIDALVNSLLAFRIAKRHTKLASECTWSQGRIDFMSENLNHTERQDRAITAPEFDALGRAPFISSLVKTLVHTDYDTSTGEVRSRRATGFVVGLTGEWGLGKSSVLNLLEHDLKQMEHVAVATLNPWLFKGRDEVVEAYFNALREALGFSSSEKARKLLVHLARYKASIEFVGATTAVVIDFVVGTGSATAIWKKWVLKVVRFLSKSRGLSANEERKNLEAKLAEAKIAIVMLIDELDRVEDEEVRVVAQLVKAVGDIKGISYLVAYDPSRVAQALGKGSTPEEKQKAGESYLEKIIQFPIPLRPLFMDEARDLLLQAMRNNDVTMPAESQSYQTEILNQLLRVIRTPREIKRLIGAFAVLEEIVRGEICPFDVLAYSWLVTKAPSLRERIADNIGQLVDDPSGEEMLARQRQRALATDKERTLTDILGSSAVSHLDILQLLFTRFNARREGSAEFFNGYRLALRRNLIRLLYLGNPPGDFSRRDIEVLWSLTNVDELEAELRRVKETDRLGPLLDRVGDFSASFPEAGDGIFWLALGRALVRENDWIRREEVERSLVDDACATLWRIARDGSEGSRRLRHIVHVLIEGGDLLIVPWLLRKHLFAHGLTNHGDRGRGDCIFEKDETIALRDKELPRYHDAVADGTALKKLPDTELIFCVLNSNYWDSKLKEDFTLQLDSIEAIVSFAALIMPPGIICDKSTLDLMLETDTVLKKANALLRQSGMPESDWLASAVRRLRTVLAGRDIHSADTLRDDFDQEELEHHHHHH | not soluble
6 | MPAQIEDYALLGNCRSAALVSRDGALDWLCLPRFDAPAVFAALLGNEENGRWRLAPCDPVTHSSRQYLGDTLVLETTWVTASGRARVLDFMPLGEVNSVVRIVEGLSGETHFEMDLVMRFDYGLEHHHHHH | not soluble
7 | MPDELKPHFANVQAHYDLSDDFFRLFLDPTQTYSCAYFERDDMTLQEAQIAKIDLALGKLGLQPGMTLLDVGCGWGATMMRAVEKYDVNVVGLTLSKNQANHVQQLVANSENLRSKRVLLAGWEQFDEPVDRIVSIGAFEHFGHERYDAFFSLAHRLLPADGVMLLHTITGLHPKEIHERGLPMSFTFARFLKFIVTEIFPGGRLPSIPMVQECASANGFTVTRVQSLQPHYAKTLDLWSAALQANKGQAIALQSEEVYERYMKYLTGCAEMFRIGYIDVNQFTCQK | soluble
8 | MPDKKTLWMLNELEGFEKPKIKLEQYATSSELAVSMMEMIDETIGFEGKKLIDIGCGCGMLMTTAATMYELETVLGVDIDDEALKICSRNLETAEVQDRCELLQADILDPESDLPRGTFDVAVINPPFGTKNNAGIDMQFVQIGLQMVRPGGSVFSLHKSSTRDYILKNAKKWDGVGAECCAEMRWQLPATYKFHKQKAVDIAVDLIHFKKLDS | soluble
9 | MPDMANVESFDLDHTKVKAPYVRLAGVKTTPKGDQISKYDLRFLQPNQGAIDPAAIHTLEHLLAGYMRDHLEGVVDVSPMGCRTGMYMAVIGEPDEQGVMKAFEAALKDTAGHDQPIPGVSELECGNYRDHDLAAARQHARDVLDQGLKVQETILLERGSHHHHHH | soluble
10 | MPEGILPIERDLLRFKEIVRGEVKKRVREFLTREELFGQVEGRLVSIPLPQLEIPKIVHGEPLGEGLGLGGPGEEALGPGGHIPVAELELEEFLDLVGEALRLPRLRPKGEGEVTEEALRHTTIARKGPRGLRHVRRTLKESLKRALQSGEYRPEDPLLVPEREDLRYKAPRRKPIPHAQAVVLFALDVSGSMREEELKLVKTLSFWITLWIKRHFPRLERRYLLHDAEAWEVPEEEFFKAREGGGTRISSALLLAEEILKAYPEAFYNRYLFHFSDGENWQGDTPLALEALRRLLPSLALYGYAQVESPYGQGHFLEEVQEALGGREGVALAAVRGREDLPVALKRLLGG | soluble
11 | MPELEVKGKKLRLDEDGFLQDWEEWDEEVAEALAKDTRFSPQPIELTEEHWKIIRYLRDYFIKYGVAPPVRMLVKHCKKEVRPDCNLQYIYKLFPQGPAKDACRIAGLPKPTGCV | soluble
12 | MPERLQVYKCEVCGNIVEVLNGGIGELVCCNQDMKLMSENTVDAAKEKHVPVIEKIDGGYKVKVGAVAHPMEEKHYIQWIELLADDKCYTQFLKPGQAPEAVFLIEAAKVVAREYCNIHGHWKAEN | soluble
13 | MPFIDIQSKVGINIDKWLLLQSSKQPYRWTTSCHAFEKEWVECSHGIGQIRAQKECKLEYEDFYECMHRNKLRQRLQAIQEQKKKLEKEGVYKAPDFTKDSNTP | not soluble
14 | MPFRNAVQTASPPTTPKQKAHHDRIHVHPFGLGTHLCQRPLPHDQTVRRGRTQAQTFRTPHDRAGGRFRADRRSCLHPRIPCRIGTRSGLGVLCHSRLPVPDFCVSMFCVAVFLAHAQQGIDKHRNAV | not soluble
15 | MPFVVIITGIPGVGKSTITKLALQRTRAKFKLINFGDLMFEEALKLKLVKHRDEMRKLPLEVQRELQMNAAKKIAEMAKNYPILLDTHATIKTPHGYLLGLPYEVIKILNPNFIVIIEATPSEILGRRLRDLKRDRDVETEEQIQRHQDLNRAAAITYAMHSNALIKIIENHEDKGLEEAVNELVKILDLAVKEYA | soluble
16 | MPGFDYKFLEKPKRRLLCPLCGKPMREPVQVSTCGHRFCDTCLQEFLSEGVFKCPEDQLPLDYAKIYPDPELEVQVLGLPIRCIHSEEGCRWSGPLRHLQGHLNTCSFNVIPCPNRCPMKLSRRDLPAHLQHDCPKRRLKCEFCGCDFSGEAYESHEGMCPQESVYCENKCGARMMRRLLAQHATSECPKRTQPCTYCTKEFVFDTIQSHQYQCPRLPVACPNQCGVGTVAREDLPGHLKDSCNTALVLCPFKDSGCKHRCPKLAMARHVEESVKPHLAMMCALVSRQRQELQELRRELEELSVGSDGVLIWKIGSYGRRLQEAKAKPNLECFSPAFYTHKYGYKLQVSAFLNGNGSGEGTHLSLYIRVLPGAFDNLLEWPFARRVTFSLLDQSDPGLAKPQHVTETFHPDPNWKNFQKPGTWRGSLDESSLGFGYPKFISHQDIRKRNYVRDDAVFIRAAVELPRKILS | soluble
17 | MPGFNYGGKGDGTGWSSERGSGPEPGGGSHGNSGGHDRGDSSNVGNESVTVMKPGDSYNTPWGKVIINAAGQPTMNGTVMTADNSSMVPYGRGFTRVLNSLVNNPVSLEHHHHHH | soluble
18 | MPGHTSWDATFLEPAPPLPHPSECGQPCVSGQSQMFQHRTTNAQGPPPNRPMPRPPAGMPMMTSSHEHDYTNDYEDPEEMARSRGEGFSNHLLIKTTPPPQPHPNFNSYEMSMSQQRRSQQHQQPMAPPLSDCWGSGVHDSGVLHKNADGAYYIPSGSCKF | not soluble
19 | MPGYAQYRSFSEDLSMNMEEIVALSVKHNVSDLHLCSAWPARWRIRGRMEAAPFDAPDVEELLREWLDDDQRAILLENGQLDFAVSLAENQRLRGSAFAQRQGISLALRLLPSHCPQLEQLGAPPVLPELLKSENGLILVTGATGSGKSTTLAAMVGYLNQHADAHILTLEDPVEYLYASQRCLIQQREIGLHCMTFASGLRAALREDPDVILLGELRDSETIRLALTAAETGHLVLATLHTRGAAQAVERLVDSFPAQEKDPVRNQLAGSLRAVLSQKLEVDKQEGRVALFELLINTPAVGNLIREGKTHQLPHVIQTGQKVGMLTFQQSYQQRVGEGRL | not soluble
20 | MPHDPGATRLLAISPHLDDAVLSFGAGLAQAAQDGANVLVYTVFAGAAQPPYSPAAQRMHTIWGLAPDDDAVLYRRKEDIAALDHLRVAHRHGRFLDSIYRKLPDGRWLTAHVEGRQKLAVNDHSPDSDHDLVGEVADDIRSIIDEFDPTLVVTCAAIGEHPDHEATRDAALFATHEKNVPVRLWEDLPYAVFKSGAVELPQGFRLGSADVSSVKPEMRSQKFQAVERYSSQMVLLNGSENNLFDRLDEHARQNAPHGGYGETTWPVVRSDDS | soluble
21 | MPIASYAQELKLALHQYPNFPSEGILFEDFLPIFRNPGLFQKLIDAFKLHLEEAFPEVKIDYIVGLESRGFLFGPTLALALGVGFVPVRKAGKLPGECFKATYEKEYGSDLFEIQKNAIPAGSNVIIVDDIIATGGSAAAAGELVEQLEANLLEYNFVMELDFLKGRSKLNAPVFTLLNAQKEALKK | soluble
22 | MPIKSVAIIGAGIAGLTAALAFARHGIDCDIIEQTGELAEVGAGLQLSPNAARILATLGVLPDIEARWTEPVSVDLASGKSLTTLLSLPMGAVARSRWGAPYGVLHRSTLQSALLQAVTRNPLCRLHLGKRIENATADVIAATTFRDHDLIVGADGVWSAARFSVPAAPTATFSGNVAWRFTVAAEEVPSAFNKTTVTAYLGSRGHIVAYPLKEVGGFNIVAIALGADPGATWRAESSGRQKALLLEQFRDFSPDIVRLLDSSENPTFWPLYQAGPGRWHNGRDTVLIGDAAHAMMPFAAQGAAMAIEDAFELAGTMAGSNGEKPLPVPQALAAFEALRLPRIEKARKRASLNRFAYHARGPVRIARDLVFSTRPPEAFLKDFDWLYGYHARGLEHHHHHH | soluble
